# Reference: patent publication US7393918B2, “Protein binding miniature proteins and uses thereof” (priority 2003, dated 2008)
# What was measured:
# Mena1-112 = Mena1-112 (Mus musculus, UniProt Q03173); test: competition with pGolemi^Flu for binding to Mena1-112; conditions: read-out: IC50, competition with pGolemi^Flu for binding to Mena1-112
# Mena1-112 EVH1 domain = Mena1-112 EVH1 domain (Mus musculus, UniProt Q03173); test: tryptophan fluorescence perturbation analysis of EVH1 domain binding; conditions: all EVH1 domains tested (Mena1-112, VASP1-115, Evl1-115)
# Sequence of Mena1-112 EVH1 domain (Q03173 1-112): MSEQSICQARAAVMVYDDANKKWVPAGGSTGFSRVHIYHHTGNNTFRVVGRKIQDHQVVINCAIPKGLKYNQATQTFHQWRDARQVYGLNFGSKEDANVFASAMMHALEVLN
# L. monocytogenes = L. monocytogenes actin-based motility in Xenopus laevis egg cytoplasmic extracts; design: species or system Listeria monocytogenes
# Experimental: Errors bars show the intraquartile range.
# L. monocytogenes motility in mammalian cells and extracts is due to interactions between the 639-residue bacterial protein ActA and host proteins that recruit and activate actin polymerization. Addition of 10 μM ActA11 decreased the median speed of L. monocytogenes by 89%, consistent with previous work. […] Further experimentation will be required to fully understand the molecular events that result in altered motility.
# Sequence of Mena1-112 (Q03173 1-112): as above
substance,measurement,setting,value
"ActA11: 11 residue peptide comprising PPII repeat 2 of L. monocytogenes ActA; best previously known Mena ligand (DFPPPPTDEEL; ActA11, peptide comprising PPII repeat of ActA protein)",IC50,Mena1-112,4 ± 0.2 µM
same,Krel among EVH1 domains,Mena1-112 EVH1 domain,< 3
same,decrease of median speed of L. monocytogenes,L. monocytogenes; 10 μM,89%
same,discontinuous tail formation of L. monocytogenes,L. monocytogenes; any concentration tested,Discontinuous tails were not observed
